# Measured values: publication PMC11698047, “The dual Ras-association domains of Drosophila Canoe have differential roles in linking cell junctions to the cytoskeleton during morphogenesis” (Journal of Cell Science, 2024)
# “And” between values parts separate entries of the source, which are not always exact repeats. Equal entries are not always repeated.
# B1: Drosophila melanogaster Canoe RA1 domain (amino acids 1-137, including the αN helix) (domain or fragment, UniProt Q24279 1-137, looked up)
# chain: MSHDKKMLDREAVRSVIQQWNANRLDLFALSEPDENLLFHGVMRFYFQDAGQKVATKCIRVASDATVTDVIDTLIEKFRPDMRMLSVPNYALYEVHANGEERRLNADEKPLLVQLNWHIDDREGRFLLKNIDQKTTP
# notes: Canoe (Cno), Drosophila melanogaster, RA1 domain with its N-terminal αN helix, amino acids 1-137; The methods say that some RA1 preparations were purified without thrombin treatment; also called Cno RA1; source: E. coli BL21 DE3 pLysS, purified (Ni-NTA, thrombin cleavage, benzamidine sepharose, second Ni-NTA); not shown: His6, N-terminal, cleaved
# B2: Drosophila melanogaster GTPase Rap1G12V (amino acids 1-180), GMPPNP-loaded (enzyme, UniProt P08645 1-180, looked up)
# chain: MREYKIVVLGSVGVGKSALTVQFVQCIFVEKYDPTIEDSYRKQVEVDGQQCMLEILDTAGTEQFTAMRDLYMKNGQGFVLVYSITAQSTFNDLQDLREQILRVKDTDDVPMVLVGNKCDLEEERVVGKELGKNLATQFNCAFMETSAKAKVNVNDIFYDLVRQINKKSPEKKQKKPKKSL
# notes: Rap1 GTPase, Drosophila melanogaster, amino acids 1-180, constitutively active G12V mutant; Loaded with the non-hydrolysable nucleotide GMPPNP and Mg2+ (formula mass 21.0 kDa); Cloned NdeI/EcoRI in pET28; a few vector residues probably remain at the N-terminus after thrombin cleavage (surmised); also called Rap1-GMPPNP; Rap1G12V-GMPPNP; source: E. coli BL21 DE3 pLysS, purified (Ni-NTA, thrombin …)
# B3: Drosophila melanogaster Canoe RA2 domain (amino acids 222-350, including the αN helix), with His-tag (domain or fragment, UniProt Q24279 222-350, looked up)
# chain: TRSISNPEAVMRRRRQQKLEKKLQQFRSRDGGPDTGGTLKIYGESLCQDVPYKTLLLSIRDCAQAVVREMLTKYGLEKADPLHYCLVQVNSDGTEYILDDDECPLSILMNHPTSRGSIMFHVRRRPADS
# notes: Canoe (Cno), Drosophila melanogaster, RA2 domain with its N-terminal αN helix, amino acids 222-350; Cloned NdeI/EcoRI in pET28; also called Cno RA2; RA2 with His-tag; source: E. coli BL21 DE3 pLysS, purified (Ni-NTA, without thrombin treatment); not shown: His6, N-terminal, kept
# Experiments:
# Details in all cases: both partners purified
# [1] = target: B2; assay: ITC; GMPPNP-loaded Rap1G12V (150-670 µM for RA1; 650-1200 µM for RA2) injected into the cell with RA1 (20-50 µM) or RA2 (42-80 µM); 25°C, buffer C (25 mM HEPES-NaOH pH 7.5, 100 mM NaCl, 5 mM MgCl2, 0.1% β-ME); one-site binding model
# [2] = target: B3; assay: as above
# [3] = target: B1; assay: as above
# [4] = target: B1; assay: SEC-MALS; 100 µl of individual proteins (200 µM) or RA domain-Rap1G12V-GMPPNP complexes (200 µM complex) on Superdex 200, 0.5 ml/min, buffer C (25 mM HEPES-NaOH pH 7.5, 100 mM NaCl, 5 mM MgCl2, 0.1% β-ME) with 0.2 g/l sodium azide; in duplicate
Kd [1],dH [2],stoichiometry N [2],dH [3],stoichiometry N [3],stoichiometry N [4],Binder
4.5 µM and 5.9 µM,,,,,,B1
,-3070 cal/mol and -2180 cal/mol and -2720 cal/mol,0.755 and 0.73 and 0.63,-4380 cal/mol and -4790 cal/mol,0.717,1,B2
8.8 µM and 7.9 µM and 8.7 µM,,,,,,B3
